We go through two substances from publication PMC11373591.

Assay [1] concerns the target HLA.A2-H12 / beta-2-microglobulin refolded with the 9V NY-ESO-1 peptide (A2/9V).
In assay [2] the target is CD8 binding–deficient HLA.A2 (DT227/228KA) refolded with the 9V NY-ESO-1 peptide (A2^ΔCD8/9V).
The target in assay [3] is HLA.A2-H12 / beta-2-microglobulin refolded with the 9V NY-ESO-1 peptide (A2/9V). The source holds these as a separate data set.

As for 1G4 TCR, the EC50: antigen density on the SLB at half-maximum T cell activation (Fura-2 calcium response); receptor by CRISPR-Cas9 knock-in (antigen molecules per μm^2) turned out to be 0.00703 in assay [1] and 0.0181 in assay [2]. For the same substance, in assay [3], the specific lysis of HLA.A2-expressing K562 cells pulsed with 0.1 nM 9V peptide after 6, 8 and 24 hours of coculture at 1:1 (luciferase); 1G4 by CRISPR-Cas9 stood at 65 % killing.
Take c58c61 1G4hi TCR: the EC50: antigen density on the SLB at half-maximum T cell activation (Fura-2 calcium response); receptor by CRISPR-Cas9 knock-in (antigen molecules per μm^2) came to 0.04 in assay [1] and 0.0736 in assay [2].
